Measurements as given in patent publication US20260242735A1 (UNIVERSIT T BASEL, published 2026).
One block for each binder: values may come before it.

Legend:
Assay in all cases: flow cytometry on transfected cells, IgG
human CD33 I47T = human CD33 I47T (human, UniProt P20138 18-364)
Protocol: (§1) An alanine scan on human CD33 was performed to the determine the residues on CD33 that are involved in binding to the antibodies investigated. […] Briefly, a mutation library of CD33 was created by high-throughput, site-directed mutagenesis. Each residue was individually mutated to alanine, with alanine codons mutated to serine. The mutant library was arrayed in 384-well microplates and transiently transfected into HEK293-T. Following transfection, cells were incubated with the indicated antibodies (IgG or Fab) at concentrations pre-determined using an independent immunofluorescence titration curve on wild type CD33. […] Binding of each antibody to each mutant clone was determined in duplicates. For each point, background fluorescence was subtracted from the raw data, which were then normalized to antibody reactivity with wild type CD33.
(§2) Antibodies were screened for binding to the human CD33 variants in IgG format. […] For each mutation, background fluorescence was subtracted from the raw data, which were then normalized to antibody reactivity with wild-type CD33.

human CD33 Y49P = human CD33 Y49P (human, UniProt P20138 18-364)
Protocol: as §1, §2

human CD33 F44L = human CD33 F44L (human, UniProt P20138 18-364)
Protocol: as §1, §2

human CD33 P46H = human CD33 P46H (human, UniProt P20138 18-364)
Protocol: as §1, §2

human CD33 P46D = human CD33 P46D (human, UniProt P20138 18-364)
Protocol: as §1, §2

human CD33 F44T = human CD33 F44T (human, UniProt P20138 18-364)
Protocol: as §1, §2

human CD33 P48H = human CD33 P48H (human, UniProt P20138 18-364)
Protocol: as §1, §2

human CD33 F44H = human CD33 F44H (human, UniProt P20138 18-364)
Protocol: as §1, §2

human CD33 Y49L = human CD33 Y49L (human, UniProt P20138 18-364)
Protocol: as §1, §2

human CD33 Y49R = human CD33 Y49R (human, UniProt P20138 18-364)
Protocol: as §1, §2

human CD33 Y50G = human CD33 Y50G (human, UniProt P20138 18-364)
Protocol: as §1, §2

human CD33 P48G = human CD33 P48G (human, UniProt P20138 18-364)
Protocol: as §1, §2

human CD33 P46I = human CD33 P46I (human, UniProt P20138 18-364)
Protocol: as §1, §2

human CD33 I47G = human CD33 I47G (human, UniProt P20138 18-364)
Protocol: as §1, §2

human CD33 Y50I = human CD33 Y50I (human, UniProt P20138 18-364)
Protocol: as §1, §2

human CD33 P48I = human CD33 P48I (human, UniProt P20138 18-364)
Protocol: as §1, §2

human CD33 I47F = human CD33 I47F (human, UniProt P20138 18-364)
Protocol: as §1, §2

human CD33 H45Y = human CD33 H45Y (human, UniProt P20138 18-364)
Protocol: as §1, §2

human CD33 I47E = human CD33 I47E (human, UniProt P20138 18-364)
Protocol: as §1, §2

human CD33 P48Y = human CD33 P48Y (human, UniProt P20138 18-364)
Protocol: as §1, §2

human CD33 P48D = human CD33 P48D (human, UniProt P20138 18-364)
Protocol: as §1, §2

human CD33 Y49I = human CD33 Y49I (human, UniProt P20138 18-364)
Protocol: as §1, §2

human CD33 Y49S = human CD33 Y49S (human, UniProt P20138 18-364)
Protocol: as §1, §2

human CD33 P46R = human CD33 P46R (human, UniProt P20138 18-364)
Protocol: as §1, §2

human CD33 P46L = human CD33 P46L (human, UniProt P20138 18-364)
Protocol: as §1, §2

human CD33 F44P = human CD33 F44P (human, UniProt P20138 18-364)
Protocol: as §1, §2

human CD33 Y50P = human CD33 Y50P (human, UniProt P20138 18-364)
Protocol: as §1, §2

human CD33 Y50V = human CD33 Y50V (human, UniProt P20138 18-364)
Protocol: as §1, §2

human CD33 P46Y = human CD33 P46Y (human, UniProt P20138 18-364)
Protocol: as §1, §2

human CD33 I47R = human CD33 I47R (human, UniProt P20138 18-364)
Protocol: as §1, §2

human CD33 Y49H = human CD33 Y49H (human, UniProt P20138 18-364)
Protocol: as §1, §2

human CD33 Y49Q = human CD33 Y49Q (human, UniProt P20138 18-364)
Protocol: as §1, §2

human CD33 I47W = human CD33 I47W (human, UniProt P20138 18-364)
Protocol: as §1, §2

human CD33 F43V = human CD33 F43V (human, UniProt P20138 18-364)
Protocol: as §1, §2

human CD33 P48F = human CD33 P48F (human, UniProt P20138 18-364)
Protocol: as §1, §2

human CD33 P46S = human CD33 P46S (human, UniProt P20138 18-364)
Protocol: as §1, §2

human CD33 Y50D = human CD33 Y50D (human, UniProt P20138 18-364)
Protocol: as §1, §2

human CD33 Y50L = human CD33 Y50L (human, UniProt P20138 18-364)
human CD33 Y50L, sequence (P20138 18-364 Y50L limits assumed): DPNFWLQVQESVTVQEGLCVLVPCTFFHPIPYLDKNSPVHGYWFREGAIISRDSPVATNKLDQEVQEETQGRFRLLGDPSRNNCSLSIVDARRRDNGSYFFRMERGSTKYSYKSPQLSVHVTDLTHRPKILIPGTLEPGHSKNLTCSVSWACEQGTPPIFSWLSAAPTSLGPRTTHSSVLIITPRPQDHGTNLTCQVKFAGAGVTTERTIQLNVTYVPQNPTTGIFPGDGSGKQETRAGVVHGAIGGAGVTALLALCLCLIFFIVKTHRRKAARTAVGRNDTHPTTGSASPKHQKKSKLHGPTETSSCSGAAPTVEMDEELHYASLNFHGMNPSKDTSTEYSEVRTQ
Protocol: as §1, §2

human CD33 P48G, sequence (P20138 18-364 P48G limits assumed): as the sequence (P20138 18-364 Y50L limits assumed) above, with P31G, L33Y counted along it
human CD33 Y49H, sequence (P20138 18-364 Y49H limits assumed): as the sequence (P20138 18-364 Y50L limits assumed) above, with Y32H, L33Y counted along it
human CD33 Y50V, sequence (P20138 18-364 Y50V limits assumed): as the sequence (P20138 18-364 Y50L limits assumed) above, with L33V counted along it
human CD33 Y50I, sequence (P20138 18-364 Y50I limits assumed): as the sequence (P20138 18-364 Y50L limits assumed) above, with L33I counted along it
human CD33 P48Y, sequence (P20138 18-364 P48Y limits assumed): as the sequence (P20138 18-364 Y50L limits assumed) above, with P31Y, L33Y counted along it
human CD33 I47W, sequence (P20138 18-364 I47W limits assumed): as the sequence (P20138 18-364 Y50L limits assumed) above, with I30W, L33Y counted along it
human CD33 F44H, sequence (P20138 18-364 F44H limits assumed): as the sequence (P20138 18-364 Y50L limits assumed) above, with F27H, L33Y counted along it
human CD33 Y49I, sequence (P20138 18-364 Y49I limits assumed): as the sequence (P20138 18-364 Y50L limits assumed) above, with Y32I, L33Y counted along it
human CD33 P48F, sequence (P20138 18-364 P48F limits assumed): as the sequence (P20138 18-364 Y50L limits assumed) above, with P31F, L33Y counted along it
human CD33 F44P, sequence (P20138 18-364 F44P limits assumed): as the sequence (P20138 18-364 Y50L limits assumed) above, with F27P, L33Y counted along it
human CD33 P48D, sequence (P20138 18-364 P48D limits assumed): as the sequence (P20138 18-364 Y50L limits assumed) above, with P31D, L33Y counted along it
human CD33 P46S, sequence (P20138 18-364 P46S limits assumed): as the sequence (P20138 18-364 Y50L limits assumed) above, with P29S, L33Y counted along it
human CD33 F44T, sequence (P20138 18-364 F44T limits assumed): as the sequence (P20138 18-364 Y50L limits assumed) above, with F27T, L33Y counted along it

Mean % WT Binding (human CD33 I47T): 97.2 % WT binding | Mean % WT Binding (human CD33 Y49P): 117 % WT binding | Mean % WT Binding (human CD33 F44L): 104 % WT binding | Mean % WT Binding (human CD33 P46H): 107 % WT binding | Mean % WT Binding (human CD33 P46D): 104 % WT binding | Mean % WT Binding (human CD33 F44T): 93.9 % WT binding | Mean % WT Binding (human CD33 P48H): 94.4 % WT binding | Mean % WT Binding (human CD33 F44H): 91.3 % WT binding | Mean % WT Binding (human CD33 Y49L): 97.9 % WT binding | Mean % WT Binding (human CD33 Y49R): 101 % WT binding | Mean % WT Binding (human CD33 Y50G): 115 % WT binding | Mean % WT Binding (human CD33 P48G): 89 % WT binding | Mean % WT Binding (human CD33 P46I): 98.5 % WT binding | Mean % WT Binding (human CD33 I47G): 105 % WT binding | Mean % WT Binding (human CD33 Y50I): 118 % WT binding | Mean % WT Binding (human CD33 P48I): 102 % WT binding | Mean % WT Binding (human CD33 I47F): 105 % WT binding | Mean % WT Binding (human CD33 H45Y): 84.4 % WT binding | Mean % WT Binding (human CD33 I47E): 122 % WT binding | Mean % WT Binding (human CD33 P48Y): 79.1 % WT binding | Mean % WT Binding (human CD33 P48D): 115 % WT binding | Mean % WT Binding (human CD33 Y49I): 113 % WT binding | Mean % WT Binding (human CD33 Y49S): 102 % WT binding | Mean % WT Binding (human CD33 P46R): 103 % WT binding | Mean % WT Binding (human CD33 P46L): 107 % WT binding | Mean % WT Binding (human CD33 F44P): 88 % WT binding | Mean % WT Binding (human CD33 Y50P): 98.1 % WT binding | Mean % WT Binding (human CD33 Y50V): 108 % WT binding | Mean % WT Binding (human CD33 P46Y): 79.9 % WT binding | Mean % WT Binding (human CD33 I47R): 96.9 % WT binding | Mean % WT Binding (human CD33 Y49H): 118 % WT binding | Mean % WT Binding (human CD33 Y49Q): 115 % WT binding | Mean % WT Binding (human CD33 I47W): 114 % WT binding | Mean % WT Binding (human CD33 F43V): 91.8 % WT binding | Mean % WT Binding (human CD33 P48F): 93.8 % WT binding | Mean % WT Binding (human CD33 P46S): 110 % WT binding | Mean % WT Binding (human CD33 Y50D): 129 % WT binding | Mean % WT Binding (human CD33 Y50L): 108 % WT binding
B1: Refmab #6 (antibody, human IgG1, V domains shown)
VH: QVQLQQPGAEVVKPGASVKMSCKASGYTFTSYYIHWIKQTPGQGLEWVGVIYPGNDDISYNQKFQGKATLTADKSSTTAYMQLSSLTSEDSAVYYCAREVRLRYFDVWGQGTTVTVSS
VL: EIVLTQSPGSLAVSPGERVTMSCKSSQSVFFSSSQKNYLAWYQQIPGQSPRLLIYWASTRESGVPDRFTGSGSGTDFTLTISSVQPEDLAIYYCHQYLSSRTFGQGTKLEIK

Mean % WT Binding (human CD33 I47T): 98.4 % WT binding | Mean % WT Binding (human CD33 Y49P): 2.2 % WT binding | Mean % WT Binding (human CD33 F44L): 109 % WT binding | Mean % WT Binding (human CD33 P46H): 69.8 % WT binding | Mean % WT Binding (human CD33 P46D): 76 % WT binding | Mean % WT Binding (human CD33 F44T): 92.4 % WT binding | Mean % WT Binding (human CD33 P48H): 7.4 % WT binding | Mean % WT Binding (human CD33 F44H): 117 % WT binding | Mean % WT Binding (human CD33 Y49L): 0.8 % WT binding | Mean % WT Binding (human CD33 Y49R): 1 % WT binding | Mean % WT Binding (human CD33 Y50G): 5 % WT binding | Mean % WT Binding (human CD33 P48G): 3.5 % WT binding | Mean % WT Binding (human CD33 P46I): 100 % WT binding | Mean % WT Binding (human CD33 I47G): 80.9 % WT binding | Mean % WT Binding (human CD33 Y50I): 2.5 % WT binding | Mean % WT Binding (human CD33 P48I): 4 % WT binding | Mean % WT Binding (human CD33 I47F): 90.5 % WT binding | Mean % WT Binding (human CD33 H45Y): 94.2 % WT binding | Mean % WT Binding (human CD33 I47E): 89.1 % WT binding | Mean % WT Binding (human CD33 P48Y): 1.5 % WT binding | Mean % WT Binding (human CD33 P48D): 2.1 % WT binding | Mean % WT Binding (human CD33 Y49I): 0.5 % WT binding | Mean % WT Binding (human CD33 Y49S): 0.5 % WT binding | Mean % WT Binding (human CD33 P46R): 103 % WT binding | Mean % WT Binding (human CD33 P46L): 87.2 % WT binding | Mean % WT Binding (human CD33 F44P): 114 % WT binding | Mean % WT Binding (human CD33 Y50P): 43.4 % WT binding | Mean % WT Binding (human CD33 Y50V): 4.2 % WT binding | Mean % WT Binding (human CD33 P46Y): 48 % WT binding | Mean % WT Binding (human CD33 I47R): 94.6 % WT binding | Mean % WT Binding (human CD33 Y49H): 2.4 % WT binding | Mean % WT Binding (human CD33 Y49Q): 2.3 % WT binding | Mean % WT Binding (human CD33 I47W): 90.8 % WT binding | Mean % WT Binding (human CD33 F43V): 82.2 % WT binding | Mean % WT Binding (human CD33 P48F): 6 % WT binding | Mean % WT Binding (human CD33 P46S): 98.7 % WT binding | Mean % WT Binding (human CD33 Y50D): 2.5 % WT binding | Mean % WT Binding (human CD33 Y50L): 1.7 % WT binding
B2: Refmab #5 (antibody, human IgG1, V domains shown)
VH: QVQLVQSGAEVKKPGASVKVSCKASGYTFTNYDINWVRQAPGQGLEWIGWIYPGDGSTKYNEKFKAKATLTADTSTSTAYMELRSLRSDDTAVYYCASGYEDAMDYWGQGTTVTVSS
VL: DIQMTQSPSSLSASVGDRVTINCKASQDINSYLSWFQQKPGKAPKTLIYRANRLVDGVPSRFSGSGSGQDYTLTISSLQPEDFATYYCLQYDEFPLTFGGGTKVEIK
